Results taken from US20210179726A1 (DINGFU BIOTARGET, published 2021).

How the values were obtained:
[1] = target: T1, hGITR-EGFP on HEK293 cells (human, UniProt Q9Y5U5 26-241); experiment: FACS on hGITR-EGFP HEK293 cells
T1 construct: EGFP fusion expressed on transfected HEK293 cells; also called human GITR
T1 sequence (looked up): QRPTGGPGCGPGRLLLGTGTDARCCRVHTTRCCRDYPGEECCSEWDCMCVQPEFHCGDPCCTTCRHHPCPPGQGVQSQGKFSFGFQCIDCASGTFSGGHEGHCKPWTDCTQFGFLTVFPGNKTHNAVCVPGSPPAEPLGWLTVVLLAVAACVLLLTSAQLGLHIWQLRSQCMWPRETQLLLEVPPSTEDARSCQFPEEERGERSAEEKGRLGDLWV
Description: (§1) The hCD137-EGFP, hOX40-EGFP and hGITR-EGFP cells as described in Example 1 were washed twice in PBS, 10 μg/ml of each chimeric antibody as prepared in Example 3 (m2E7, m2B8, m4H3, m3E7, m1A8, m4G1, m2G3, m2F11 and m3B8) was added to each type of cells and incubated at 4° C. for 30 min. Then it was washed twice with PBS, anti-human Ig-APC (Jackson ImmunoResearch Laboratories, Cat #109-135-098) was added and were incubated at 4° C. for 30 min, washed twice with PBS and resuspended in 300 μl PBS. In FIG. 2, NC represents negative control (PBS), a-hlg-APC represents secondary antibody only, the other panels represent results obtained with each of the corresponding clone, respectively.

[2] = target: T2, hCD27-EGFP on HEK293 cells (human, UniProt P26842 20-260); experiment: FACS on CD27-EGFP HEK293 cells, 10 µg/ml antibody
T2 construct: EGFP fusion expressed on transfected HEK293 cells; also called CD27-EGFP cells; cell surface CD27
T2 sequence (looked up): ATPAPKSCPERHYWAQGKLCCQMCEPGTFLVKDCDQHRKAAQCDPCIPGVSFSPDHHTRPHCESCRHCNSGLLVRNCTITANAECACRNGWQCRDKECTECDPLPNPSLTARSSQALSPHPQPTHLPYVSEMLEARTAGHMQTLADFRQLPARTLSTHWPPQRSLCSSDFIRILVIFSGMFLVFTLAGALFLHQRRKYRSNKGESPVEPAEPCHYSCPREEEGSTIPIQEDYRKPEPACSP
Description: 5×10⁵ CD27-EGFP cells prepared in Example 1 were washed twice in PBS, 10 μg/ml of each chimeric antibody prepared in Example 3 (m2E7, m2B8, m4H3, m3E7, m1A8, m4G1, m2G3, m2F11 and m3B8) was added to the cells and incubated at 4° C. for 30 min. Then it was washed twice in PBS, anti-human Ig-APC (Jackson ImmunoResearch Laboratories, Cat #109-135-098) was added, incubated at 4° C. for 30 min, washed twice with PBS and resuspended in 300 μl PBS. In FIG. 1, NC represents negative control (PBS), a-hlg-APC represents secondary antibody only, the other panels represent results obtained with each of the corresponding clone, respectively.

[3] = target: T3, hOX40-EGFP on HEK293 cells (human, UniProt P43489 29-277); experiment: FACS on hOX40-EGFP HEK293 cells
T3 construct: EGFP fusion expressed on transfected HEK293 cells; also called human OX40
T3 sequence (looked up): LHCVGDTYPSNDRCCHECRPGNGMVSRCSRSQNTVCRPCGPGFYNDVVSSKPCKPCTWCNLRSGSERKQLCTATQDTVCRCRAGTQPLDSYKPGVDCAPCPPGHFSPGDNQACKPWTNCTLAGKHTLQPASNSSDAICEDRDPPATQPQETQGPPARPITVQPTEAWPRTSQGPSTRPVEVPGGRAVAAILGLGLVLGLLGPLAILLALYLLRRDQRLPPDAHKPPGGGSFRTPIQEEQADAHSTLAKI
Description: as §1

[4] = target: T4, hCD137-EGFP on HEK293 cells (human, UniProt Q07011 24-255); experiment: FACS on hCD137-EGFP HEK293 cells
T4 construct: EGFP fusion expressed on transfected HEK293 cells; also called human CD137
T4 sequence (Q07011 24-255): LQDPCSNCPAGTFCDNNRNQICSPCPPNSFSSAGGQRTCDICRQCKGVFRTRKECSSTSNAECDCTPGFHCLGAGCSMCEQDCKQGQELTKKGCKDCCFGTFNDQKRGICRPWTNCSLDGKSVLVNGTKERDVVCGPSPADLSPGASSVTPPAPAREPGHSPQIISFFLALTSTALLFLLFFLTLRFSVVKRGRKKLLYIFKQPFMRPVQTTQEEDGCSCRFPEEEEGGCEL
Description: as §1

B1: m3E7 (antibody, human IgG1, V domains shown)
VH: QIQLVQSGPELKKPGETVKISCKASGYTFTTYGMSWVKQAPGKGLHWMGWINTHSGAPTYVDDFKGRFAFSLETSASTAFLQINNLINEDTATYFCAREGDALDYWGQGTSVTVSS
VL: DIVMTQTTAIMSAFPGEKVTMTCSASSSVSYMHWYQQKSGTSPKRWIYDTSKLASGVPVRFSGSGSGTSYSLTISNMEAEDAATYYCQQWSRNPPFTFGAGTKLELK
notes: Chimeric antibody: mouse VH/VL on human IgG1 / human kappa constant regions; also called clone 3E7; not shown: human IgG1 constant region, UniProt P01857
[1]
  binding result: no binding (tested: 10 µg/ml)
[2]
  binding result: binds
[3]
  binding result: no binding (tested: 10 µg/ml)
[4]
  binding result: no binding (tested: 10 µg/ml)
